Our source for the OD450 values is CN107042090A.

Experiment [1] has as its target Myc-GST融合蛋白 (Myc标签与谷胱甘肽融合的蛋白). In words: ELISA, Myc-GST coated at 5 μg/mL, HRP anti-His secondary antibody; heat test at 70℃. For orientation: In an ELISA, binding on a coated surface is turned into a signal by an enzyme label.
In experiment [2] the target is Myc-GST融合蛋白 (Myc标签与谷胱甘肽融合的蛋白). As to the kind of experiment: ELISA, Myc-GST coated at 5 μg/mL, HRP anti-His secondary antibody; heat test at 80℃.
The target of experiment [3] is Myc-GST融合蛋白 (Myc标签与谷胱甘肽融合的蛋白). As to the kind of experiment: ELISA, Myc-GST coated at 5 μg/mL, HRP anti-His secondary antibody; heat test at 90℃.

B1: 抗c-Myc标签单域重链抗体 (anti-c-Myc tag single-domain heavy-chain antibody) (VHH, not shown: small tags and cut ends)
VHH: QLQLVESGGGEVQAGGSLKLSCAASGSNVQISAMGWYRQVPGKQREFVASETNGGRIDYADFVEGRFTISRDRAKNTVYLQMTSLRPEDTAVYYCNAAPGGWYADLREEYWGKGTLVTVSS
In the case of B1, the OD450 was 1.5 OD450 in experiment [1], 1.2 OD450 in experiment [2] and 1.1 OD450 in experiment [3].
